Changes are numbered by the printed parent chain.
Legend:
SprT-BR = molecular target: T1, SprT-BR (UniProt Q9H040 28-245); experiment: NMR 1H,15N-HSQC; 100 uM protein, 200 uM DNA; no ubiquitin; line broadening in ZBD-BR; NMR: 20 mM HEPES/KOH pH 7.2, 150 mM KCl, 10% D2O, 308 K; 100 uM protein, 2x dsDNA, 5x Ub1; conditions: protein: recombinant; blunt
T1 sequence: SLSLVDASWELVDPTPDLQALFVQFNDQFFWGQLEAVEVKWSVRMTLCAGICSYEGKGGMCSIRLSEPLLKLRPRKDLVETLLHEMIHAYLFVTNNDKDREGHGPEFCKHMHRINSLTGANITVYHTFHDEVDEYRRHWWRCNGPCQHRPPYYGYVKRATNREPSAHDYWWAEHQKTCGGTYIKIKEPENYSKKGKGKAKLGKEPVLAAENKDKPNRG

[1] = molecular target: SprT-BR;mono-ubiquitin (Ub1) (Homo sapiens?;, UniProt Q9H040;P0CG48 28-245;1-76, |); experiment: NMR 1H,15N-HSQC; 200 uM DNA + 500 uM Ub1; synergistic severe line broadening; NMR: 20 mM HEPES/KOH pH 7.2, 150 mM KCl, 10% D2O, 308 K; 100 uM protein, 2x dsDNA, 5x Ub1; conditions: protein: recombinant;recombinant; copies: 1;1; blunt
SprT-BR-L99S = molecular target: T2, SprT-BR-L99S (UniProt Q9H040 28-245, L99S); experiment: NMR 1H,15N-HSQC; 100 uM protein, 200 uM DNA; no ubiquitin; line broadening comparable to WT; NMR: 20 mM HEPES/KOH pH 7.2, 150 mM KCl, 10% D2O, 308 K; 100 uM protein, 2x dsDNA, 5x Ub1; conditions: protein: recombinant; blunt
T2 sequence: T1 sequence with L72S

Measured: binding result

B1: 15-bp dsDNA (NMR) (dsDNA)
DNA 1: CCTTGCTAGGACATC
DNA 2: GATGTCCTAGCAAGG
binds: all assays above

— PMC12279946
